Patent publication US20120009190A1 (Amgen, published 2012)

Columns and labels:
[1] = biological target: mouse IL-17RA (IL-17 receptor) on ST-2 cells (mouse) (UniProt Q60943); test: cell-based or functional assay
[2] = biological target: T1, IL-17RA FN1 domain fused to the Gal4 DNA binding domain (pGBKT7) (yeast, UniProt P04386 1-147, limits assumed); test: yeast two-hybrid, growth on -Leu/-Trp/-Ade
T1 construct: Only the FN1 domain was used
Description: The IL-17RA ECD, FN2, FN2/linker and FN1 domains were fused to the Ga14 DNA binding domain (BD) or activation domain (AD) in the Pgbkt7 and Pgadat7 yeast expression plasmids (BD Clontech). S. cerevisiae were transformed by standard methods, and growth on Leu-Trp-deficient plates or Leu-Trp-Ade-deficient plates was evaluated by colony counting. CARMA1 (provided by X. Lin, MD Anderson Cancer Center, Houston Tex.) was used a positive control.
To obtain the data presented Table 1, full length (FL) IL-17RA or the FN1, FN2/linker or FN2 domains were fused to the yeast Ga14 DNA binding domain (BD) or activation domain (AD) in the pGBKT7 and pGADT7 plasmids. S. cerevisiae were transformed with the indicated pairs of plasmids and growth on Leu-Trp-deficient plates (selecting for both plasmids) or Leu-Trp-Ade-deficient plates (selecting for each plasmid and an interaction) was evaluated. CARMA1 was a positive control. FL, full length. FN, fibronectin.

Sequence of mouse IL-17RA (IL-17 receptor) on ST-2 cells (mouse) (Q60943 32-864): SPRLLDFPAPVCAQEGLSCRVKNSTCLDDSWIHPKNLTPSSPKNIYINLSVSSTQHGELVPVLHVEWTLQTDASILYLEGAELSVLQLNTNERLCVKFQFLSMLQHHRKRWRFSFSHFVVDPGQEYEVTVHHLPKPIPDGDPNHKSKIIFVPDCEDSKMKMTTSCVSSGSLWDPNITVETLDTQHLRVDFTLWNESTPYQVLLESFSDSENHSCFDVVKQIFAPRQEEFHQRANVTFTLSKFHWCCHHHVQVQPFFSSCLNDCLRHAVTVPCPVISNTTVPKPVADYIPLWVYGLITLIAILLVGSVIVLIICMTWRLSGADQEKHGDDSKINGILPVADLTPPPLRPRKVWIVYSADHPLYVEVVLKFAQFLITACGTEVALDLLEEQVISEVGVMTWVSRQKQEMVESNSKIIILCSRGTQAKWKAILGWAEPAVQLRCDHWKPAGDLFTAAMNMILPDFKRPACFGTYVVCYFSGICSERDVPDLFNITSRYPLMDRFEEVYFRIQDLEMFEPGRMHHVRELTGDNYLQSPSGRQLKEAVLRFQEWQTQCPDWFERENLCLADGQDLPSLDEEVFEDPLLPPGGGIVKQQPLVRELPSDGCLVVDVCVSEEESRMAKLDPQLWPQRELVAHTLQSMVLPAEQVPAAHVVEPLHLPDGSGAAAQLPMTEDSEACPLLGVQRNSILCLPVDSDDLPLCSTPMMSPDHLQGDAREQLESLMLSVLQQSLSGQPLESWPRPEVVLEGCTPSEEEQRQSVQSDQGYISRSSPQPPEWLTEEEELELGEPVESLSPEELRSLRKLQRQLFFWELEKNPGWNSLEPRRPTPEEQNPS

Molecule: muPLAD (murine PLAD construct, FN2 of mouse IL-17RA without the linker) (from UniProt Q60943 205-283) (receptor)
- IL-6 (ELISA) from ST-2 cells + IL-17A 10 ng/ml, muPLAD at 3 ug/ml [1]: 2240 pg/mL
- IL-6 (ELISA) from ST-2 cells + IL-17A 10 ng/ml, muPLAD at 3 ug/ml (Example 9) [1]: 155 pg/mL
- IL-6 (ELISA) from ST-2 cells + IL-17A 10 ng/ml, muPLAD at 10 ug/ml [1]: 2530 pg/mL
- IL-6 (ELISA) from ST-2 cells + IL-17A 10 ng/ml, muPLAD at 10 ug/ml (Example 9) [1]: 125 pg/mL
- IL-6 (ELISA) from ST-2 cells + IL-17A 10 ng/ml, muPLAD at 30 ug/ml [1]: 2040 pg/mL
- IL-6 (ELISA) from ST-2 cells + IL-17A 10 ng/ml, muPLAD at 30 ug/ml (Example 9) [1]: 108 pg/mL
- IL-6 (ELISA) from ST-2 cells + IL-17A + TNFa 2 ng/ml, muPLAD at 3 ug/ml [1]: 6980 pg/mL
- IL-6 (ELISA) from ST-2 cells + IL-17A + TNFa 2 ng/ml, muPLAD at 10 ug/ml [1]: 6980 pg/mL
- IL-6 (ELISA) from ST-2 cells + IL-17A + TNFa 2 ng/ml, muPLAD at 30 ug/ml [1]: 6980 pg/mL
- KC (Groα) (ELISA) from ST-2 cells + IL-17A 10 ng/ml, muPLAD at 3 ug/ml [1]: 6190 pg/mL
- KC (Groα) (ELISA) from ST-2 cells + IL-17A 10 ng/ml, muPLAD at 10 ug/ml [1]: 6130 pg/mL
- KC (Groα) (ELISA) from ST-2 cells + IL-17A 10 ng/ml, muPLAD at 30 ug/ml [1]: 6100 pg/mL
- KC (Groα) (ELISA) from ST-2 cells + IL-17A + TNFa, muPLAD at 3 ug/ml [1]: 6150 pg/mL
- KC (Groα) (ELISA) from ST-2 cells + IL-17A + TNFa, muPLAD at 10 ug/ml [1]: 6460 pg/mL
- KC (Groα) (ELISA) from ST-2 cells + IL-17A + TNFa, muPLAD at 30 ug/ml [1]: 6300 pg/mL

Molecule: muPLAD-L (murine PLAD/Linker construct, linker and FN2 of mouse IL-17RA) (from UniProt Q60943 184-283) (receptor)
- IL-6 (ELISA) from ST-2 cells + IL-17A 10 ng/ml, muPLAD-L at 3 ug/ml [1]: 2710 pg/mL
- IL-6 (ELISA) from ST-2 cells + IL-17A 10 ng/ml, muPLAD-L at 3 ug/ml (Example 9) [1]: 182 pg/mL
- IL-6 (ELISA) from ST-2 cells + IL-17A 10 ng/ml, muPLAD-L at 10 ug/ml [1]: 2790 pg/mL
- IL-6 (ELISA) from ST-2 cells + IL-17A 10 ng/ml, muPLAD-L at 10 ug/ml (Example 9) [1]: 110 pg/mL
- IL-6 (ELISA) from ST-2 cells + IL-17A 10 ng/ml, muPLAD-L at 30 ug/ml [1]: 1880 pg/mL
- IL-6 (ELISA) from ST-2 cells + IL-17A 10 ng/ml, muPLAD-L at 30 ug/ml (Example 9) [1]: 110 pg/mL
- IL-6 (ELISA) from ST-2 cells + IL-17A + TNFa 2 ng/ml, muPLAD-L at 3 ug/ml [1]: 7020 pg/mL
- IL-6 (ELISA) from ST-2 cells + IL-17A + TNFa 2 ng/ml, muPLAD-L at 10 ug/ml [1]: 7040 pg/mL
- IL-6 (ELISA) from ST-2 cells + IL-17A + TNFa 2 ng/ml, muPLAD-L at 30 ug/ml [1]: 7180 pg/mL
- KC (Groα) (ELISA) from ST-2 cells + IL-17A 10 ng/ml, muPLAD-L at 3 ug/ml [1]: 5980 pg/mL
- KC (Groα) (ELISA) from ST-2 cells + IL-17A 10 ng/ml, muPLAD-L at 10 ug/ml [1]: 5440 pg/mL
- KC (Groα) (ELISA) from ST-2 cells + IL-17A 10 ng/ml, muPLAD-L at 30 ug/ml [1]: 6230 pg/mL
- KC (Groα) (ELISA) from ST-2 cells + IL-17A + TNFa, muPLAD-L at 3 ug/ml [1]: 5750 pg/mL
- KC (Groα) (ELISA) from ST-2 cells + IL-17A + TNFa, muPLAD-L at 10 ug/ml [1]: 5550 pg/mL
- KC (Groα) (ELISA) from ST-2 cells + IL-17A + TNFa, muPLAD-L at 30 ug/ml [1]: 5500 pg/mL

B1: IL-17RA FN1 domain fused to the Gal4 activation domain (pGADT7) (other, not shown: large carriers)
chain: TPSSPKNIYINLSVSSTQHGELVPVLHVEWTLQTDASILYLEGAELSVLQLNTNERLCVKFQFLSMLQHHRKRWRFSFSHFVVDPGQEYEVTVHHLPKPIPDGDPNHKSKIIFVP
notes: Only the FN1 domain was used; Species is inferred as mouse
- binding result [2]: no binding
